Entries after “also recorded” stand apart in the source; their conditions may differ. Where two headings read alike, the source gives them in different places.
Tests used:
mice = mice (Lewis, 1996); cited from earlier work
guinea pigs = experiment: Succinylcholine lethality in guinea pigs; type: in vivo; settings: intravenous
Text: To further understand the effect and kinetics of BChE-mediated SC detoxification using continuous vital sign monitoring, the inventors moved to a larger rodent model of SC toxicity. […] At no point following loss of measurable pulse and venous oxygen saturation did these signs return in animals receiving SC 0.9% saline.

[1] = previously published (Lockridge, 1990), thioester analog assay, cited from earlier work
[2] = reported value (Sun et al., 2002); read-out: KM, cocaine hydrolysis; cited from earlier work
[3] = Succinylcholine hydrolase activity assay (96-well, choline oxidase/peroxidase); type: biochemical
Description: Assay of butyrylcholine hydrolysis followed the method of Ellman as described in (Geyer et al., 2010). Succinylcholine hydrolase activity was monitored by the method of George and co-workers (George et al., 1988) with modifications to fit a 96-well plate format. Briefly, our standard succinylcholine-hydrolysis buffer contained 100 mM NaH2PO4/Na2HPO4 buffer pH 7.5, 0.77 mM phenol, 0.15 mM 4-aminoantipyrine, 1 U/mL choline oxidase, and 1.2 U/mL horse raddish peroxidase type I. Appropriate volumes of 10× stock solutions (in 100 mM NaH2PO4/Na2HPO4 buffer pH 7.5) were pre-mixed and dispensed at 160 μL aliquotes onto 96-well plates followed by addition of the substrate succinylcholine chloride (20 μl, final concentrations as indicated). Reactions were started by addition of pBChE (4.74 nM) to yield a final well volume of 200 μl. Hydrolysis was monitored by recording absorbance changes at 500 nm. Self hydrolysis rates were measured on samples that contained no enzyme and were subtracted from the enzymatically catalyzed reaction rates. A choline standard curve was similarly created by using the same assay except that choline chloride replaced succinylcholine (final concentration range of 10-100 μM).
Kinetic analysis was done according to Radic et al. (Radic et al., 1993) as follows. Initial enzyme velocity, V0, was plotted as a function of substrate concentration and the results were fitted by nonlinear regression using GraphPad Prism to the following equation: […]
where [SC] is the concentration of SC, Vmax is maximal velocity, KM is the Michaelis-Menten constant, KSS is the dissociation constant of substrate from the enzyme's peripheral binding site, and b a factor that reflect the efficiency of hydrolysis of the substrate in the presence of another substrate molecule bound at the peripheral site (with substrate activation when b>1).

SC-induced apnea [4] = experiment: Reversal of succinylcholine-induced apnea in guinea pigs; type: in vivo, Male Hartley guinea pigs (Cavia porcellus)
Description: Guinea pig experiments were conducted as follows. Male Hartley guinea pigs (Cavia porcellus, 8 weeks old) were anesthetized with 90 mg/kg ketamine and 10 mg/kg xylazine. Once anesthetized, baseline heart rate (beats per minute) and Sp02 (%) were obtained using a Surgivet Plus Veterinary Anesthesia and Monitoring Module, model #V3404. Guinea pigs were then injected intravenously (leg vein) with 0.334 mg/kg SC (time 0). Heart rate and Sp02 were obtained every minute throughout the course of the experiment. At time+1 min, groups of three apneic guinea pigs were injected with either pBChE (0.19 mg/kg, ˜48 Upper animal) in 0.9% saline (or 0.9% saline vehicle control). At time+15 minutes all surviving guinea pigs were euthanized by CO2 asphyxiation and subsequent cervical dislocation. As above, guinea pigs received no additional care or therapy during experimentation.
Statistical significance of differences between means of heart rate and Sp02 was tested using 1-way analysis of variance (ANOVA) followed by Bonferronits Multiple Comparison Test.

SC-induced apnea [5] = experiment: Reversal of succinylcholine-induced apnea in mice; type: in vivo, Male FVB/N mice (Mus musculus)
Description: Mouse experiments were conducted as follows. Male FVB/N mice (Mus musculus, 8-12 weeks old) were anesthetized by injection of ketamine/xylazine/acepromazide cocktail at the dose of 0.05 mL per 25 g of total body weight (concentrations were, respectively 21 mg/mL, 2.4 mg/mL, and 0.3 mg/mL). Anesthetized mice were assessed for respiratory rate by counting respirations for 30 seconds using a Littman model 3000 electronic stethoscope placed on the mouse left mid axillary line and extrapolating the per minute rate. Mice were then injected intravenously (tail vein) with 1 mg/kg succinylcholine (time 0 min). At time+3 min mice were injected with pBChE (0.6 mg/kg, ˜15 Upper animal) in 0.9% saline (or 0.9% saline vehicle control) and respiratory rate was obtained as above at the indicated time points. At time+15 minutes all surviving mice were euthanized by CO2 asphyxiation and subsequent cervical dislocation. At no time during the experiment did the mice receive any other therapy including, but not limited to, airway protection/management, artificial ventilations, compressions, or any pharmacological assistance.
Statistical analyses were carried out using the GraphPad Prism software. Log-rank (Mantel-Cox) test was used to determine significance of the difference between survival curves.

[6] = 0.334 mg/kg SC i.v., 48 U BChE at 1 min, 3 min following SC injection

C[N+](C)(C)CCOC(=O)CCC(=O)OCC[N+](C)(C)C [SC, succinylcholine]
LD50 (mice): 0.28 mg/kg
LD100 (guinea pigs): 0.334 mg/kg

B1: WT BChE (protein, UniProt P06276 29-602, looked up)
Cholinesterase: EDDIIIATKNGKVRGMNLTVFGGTVTAFLGIPYAQPPLGRLRFKKPQSLTKWSDIWNATKYANSCCQNIDQSFPGFHGSEMWNPNTDLSEDCLYLNVWIPAPKPKNATVLIWIYGGGFQTGTSSLHVYDGKFLARVERVIVVSMNYRVGALGFLALPGNPEAPGNMGLFDQQLALQWVQKNIAAFGGNPKSVTLFGESAGAASVSLHLLSPGSHSLFTRAILQSGSFNAPWAVTSLYEARNRTLNLAKLTGCSRENETEIIKCLRNKDPQEILLNEAFVVPYGTPLSVNFGPTVDGDFLTDMPDILLELGQFKKTQILVGVNKDEGTAFLVYGAPGFSKDNNSIITRKEFQEGLKIFFPGVSEFGKESILFHYTDWVDDQRPENYREALGDVVGDYNFICPALEFTKKFSEWGNNAFFYYFEHRSSKLPWPEWMGVMHGYEIEFVFGLPLERRDNYTKAEEILSRSIVKRWANFAKYGNPNETQNNSTSWPVFKSTEQKYLTLNTESTRIMTKLRAQQCRFWTSFFPKVLEMTGNIDEAEWEWKAGFHRWNNYMMDWKNQFNDYTSKKESCVGL
Kcat, succinylcholine [1]: 600 min⁻¹
Km ([1]; read-out: KM, succinylcholine): 35 µM
Km [2]: 4.5 µM

B2: pBChE (protein, UniProt P06276 29-602, looked up)
Cholinesterase: B1 Cholinesterase
turnover number Kcat=Vmax/[BChE]T, succinylcholine hydrolysis ([3]; [BChE]=4.74 nM): 516 ± 33 min⁻¹
Vmax, succinylcholine hydrolysis ([3]; [BChE]=4.74 nM, ±SEM, nonlinear regression): 2.45 ± 0.16 µM/min
Kss (dissociation constant of substrate from peripheral binding site) ([3]; ±SEM, nonlinear regression): 2.0 ± 0.3 mM
Km ([3]; ±SEM, nonlinear regression, read-out: KM, succinylcholine hydrolysis): 57 ± 7 µM
b (substrate activation factor) ([3]; ±SEM, substrate activation when b>1): 2.9±0.1
heart rate (SC-induced apnea [4]; [6]): at baseline
spontaneous respirations (SC-induced apnea [4]; [6]): return of spontaneous respirations
venous oxygenation (SC-induced apnea [4]; [6]): 49%
heart rate response (SC-induced apnea [4]; 0.334 mg/kg SC i.v., 48 U BChE at 1 min, 5 min post SC injection): post-anoxic tachycardia
time by which all vital signs had returned to baseline (SC-induced apnea [4]; 0.334 mg/kg SC i.v., 48 U BChE at 1 min, time post SC injection): ≤ 7 min
protection from high-dose SC-induced apnea (SC-induced apnea [4]; high-dose SC, FIG. 21): fully protects
return of normal vital signs (SC-induced apnea [4]; sublethal doses of SC, FIG. 20): promotes return of normal vital signs
survival (SC-induced apnea [5]; 1 mg/kg SC i.v., 15 U (0.6 mg/kg) pBChE at 3 min, three mice): survived; also recorded: survival of all pBChE-treated mice
protection from SC-induced apnea (SC-induced apnea [5]; respiration rate monitored, FIG. 19): protects mice from SC-induced apnea

— patent publication US20140248684A1, “COMPOSITIONS AND METHODS FOR THE PRODUCTION AND USE OF HUMAN CHOLINESTERASES” (priority 2011, published 2014)
